Results on 9 molecules are retold here after patent publication US20090155285A1 (Eli Lilly, published 2009).

Test [1] has as its target T1, mature human TGF-β1 (human, UniProt P01137 279-390). The test can be described thus: cell-based or functional assay.
For test [2], the target named is T2, mature human TGF-β2 (human, UniProt P61812 303-414).
T2 sequence: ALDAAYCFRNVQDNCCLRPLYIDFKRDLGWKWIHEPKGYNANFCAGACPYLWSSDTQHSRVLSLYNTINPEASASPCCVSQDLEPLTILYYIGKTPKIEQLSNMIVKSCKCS
The experiment in a line: cell-based or functional assay.

Test [3] has as its target T3, mature human TGF-β3 (human, UniProt P10600 301-412).
T3 sequence: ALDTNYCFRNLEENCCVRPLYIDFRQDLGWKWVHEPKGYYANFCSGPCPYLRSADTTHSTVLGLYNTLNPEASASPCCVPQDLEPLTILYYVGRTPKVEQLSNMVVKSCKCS
The test can be described thus: cell-based or functional assay.

In test [4] the target is T1, mature human TGF-β1. The experiment in a line: BIAcore 2000 SPR, antibody captured on Protein A, TGF-β injected. The procedure: (§1) Alternate methods of measuring kinetic constants are known, for example: affinity of an invention antibody for TGF-β1 (R&D Systems, Cat # 240-B/CF), TGF-β2 (RDI, Cat #RDI-1035), and TGF-β3 (RDI, Cat # RDI-1036/CF) is measured by BIAcore® 2000. Binding affinity measurements for full-length monoclonal antibodies of the invention are determined using Biacore. Except as noted, all reagents and materials are purchased from BIAcore® AB (Upsala, Sweden). All measurements made at room temperature. Samples are dissolved in HBS-EP buffer (150 mM sodium chloride, 3 mM EDTA, 0.01% (w/v) surfactant P-20, and 10 mM HEPES, pH 7.4). Recombinant Protein A is immobilized on all four flow cells of a CM4 sensor chip at a level of 400-450 response units (RUs) using an amine coupling kit. Binding is evaluated using multiple analytical cycles. Each cycle is performed at a flow rate of 50 μL/min consisting of the steps: injection of 12 μL of antibody at 0.5 μg/mL, injection of 250 μL of TGF-β1 (starting at 5 nM and using two-fold serial dilutions to 0.13 nM for each cycle, with two injections for each concentration) followed by either a short (5 min) or long (120 min) delay for dissociation, and regeneration using two injections of 50 μL of 10 mM glycine hydrochloride, pH 1.5. Association and dissociation rates per cycle are made by fitting the biosensor data from a simple association model using ClampXP (Center for Biomolecular Interaction Analysis, Univ. of Utah) to extract the kₒₙ and koff rate constants; the equilibrium binding constant Kd is calculated from Kd=koff/kₒₙ.
(§2) When mAbs are measured using the described assay, the results are as stated in Table 2 below.

The target of test [5] is T2, mature human TGF-β2. The test is described as above. The procedure:
as §1, §2

Test [6] concerns the target T3, mature human TGF-β3. The description is as above. The procedure: as §1, §2
Test [7] has as its target T1, mature human TGF-β1. The test can be described thus: KinExA 3000, equilibrium in solution. On the procedure: (§3) A KinExA 3000 instrument (Sapidyne Inst. Inc.) measures binding kinetics. Briefly, antigen is covalently-coupled to azlactone beads and the binding of an invention free Fab to the beads is detected on the instrument. […] After incubation, free Fab in each equilibrated sample is determined on KinExA 3000 per manufacturer instructions. Kd values are determined using KinExA 3000 software. To measure kₒₙ, individual Fabs at 2 nM are mixed with 0-240 nM of antigen using the injection method according to manufacturer's instructions, and the unbound Fab is detected. The resulting data is used to calculate the kₒₙ with KinExA 3000 software. The koff is calculated using the formula K_{d=k}off/kₒₙ. Affinity data obtained under KinExA© conditions for Fab embodiments binding TGF Beta 1 are shown below in Table 1.
On the technique in general: Kinetic exclusion samples the free partner from a solution-phase mixture.

In test [8] the target is T1, mature human TGF-β1. The experiment in a line: KinExA 3000, calculated from Kd and kon. The procedure:
as §3

The target in test [9] is T1, mature human TGF-β1. The test can be described thus: KinExA 3000, solution phase, antigen-coupled beads. On the procedure:
as §3

T1 sequence (P01137 279-390 limits assumed): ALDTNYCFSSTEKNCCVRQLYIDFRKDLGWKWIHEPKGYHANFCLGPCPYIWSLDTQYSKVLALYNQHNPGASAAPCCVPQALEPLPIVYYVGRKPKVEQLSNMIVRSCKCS

B1: mAb 12.4 (antibody, human IgG4 S228P, kappa, V domains shown)
VH: QVQLVQSGAEVKKPGASVKVSCKASGYTFTSYWMNWVRQAPGQGLEWMGQIFPALGSTNYGEMFEGRVTMTTDTSTSTAYMELRSLRSDDTAVYYCARGIGNYALDAMDYWGQGTLVTVSS
VL: DIQMTQSPSSLSASVGDRVTITCRASESVDWWGNSFMHWYQQKPGKAPKLLIYLASNLESGVPSRFSGSGSGTDFTLTISSLQPEDFATYYCQQNIEDPLTFGGGTKVEIKR
notes: Full-length monoclonal antibody, made by linking the Fab to an IgG4 Fc region
Regarding B1, the entries for the “HT-2 cell neutralization assay, IC50 (Mean ng/ml)” value (“HT-2 cell neutralization assay” for short) in test [1], in [2] and in test [3] were 0.44 ng/mL, 6.14 ng/mL and 5.22 ng/mL, respectively. Besides, the values for the Kd in test [4], in test [5] and in [6] were less than 0.2 pM, 0.265 pM and 0.851 pM, respectively. Besides, the values for the koff in test [4], in test [5] and in test [6] were 6.71e-06 s⁻¹, 6e-06 s⁻¹ and 1.53e-05 s⁻¹, respectively. Also, the kon – broadly, a measure of how fast the partners come together – is more than 4e+07 M⁻¹ s⁻¹ in [4], 2.42e+07 M⁻¹ s⁻¹ in [5] and 1.76e+07 M⁻¹ s⁻¹ in test [6].

B2: Fab 3.A (Fab, V domains shown)
VH: QVQLVQSGAEVKKPGASVKVSCKASGYTFTSYWMNWVRQAPGQGLEWMGQIFPASGSTNYGEMFEGRVTMTTDTSTSTAYMELRSLRSDDTAVYYCARGIGNYALDAMDYWGQGTLVTVSS
VL: DIQMTQSPSSLSASVGDRVTITCRASESVDFWGNSFMHWYQQKPGKAPKLLIYLASNLESGVPSRFSGSGSGTDFTLTISSLQPEDFATYYCQQNIEDPLTFGGGTKVEIKR
notes: The mAb was made by linking the Fab to an IgG4 Fc region, so the mAb's chains are named; The heavy chain entry also holds the Fc, which is not in the Fab
For the molecule B2, in [7], the Kd (usually the free concentration of one partner at which half of the binding sites on the other are occupied at equilibrium, for simple one-to-one binding) stood at 15 pM. Moreover, the koff – broadly, the first-order rate constant of dissociation – in [8] was 0.00031 s⁻¹. Besides, the kon in [9] was found to be 2.1e+07 M⁻¹ s⁻¹.

B3: mAb 12.8 (antibody, human IgG4 S228P, kappa, V domains shown)
VH: QVQLVQSGAEVKKPGASVKVSCKASGYTFTSYWMNWVRQAPGQGLEWMGQIFPALGSTNYNEMFEGRVTMTTDTSTSTAYMELRSLRSDDTAVYYCARGIGNYALDAMDYWGQGTLVTVSS
VL: DIQMTQSPSSLSASVGDRVTITCRASESVDWYGNSFMHWYQQKPGKAPKLLIYYASNLESGVPSRFSGSGSGTDFTLTISSLQPEDFATYYCQQNAEDPLTFGGGTKVEIKR
notes: as for B1
As for B3, the values for the Kd in [4], in [5] and in [6] were less than 0.2 pM, 1 pM and 0.54 pM, respectively. Further, the koff in test [4] was 7.92e-06 s⁻¹; in [5], 1.22e-05 s⁻¹; in test [6], 1.12e-05 s⁻¹. Also, the kon in test [4] is more than 5e+07 M⁻¹ s⁻¹; in test [5], 2.29e+07 M⁻¹ s⁻¹; in test [6] it was 1.85e+07 M⁻¹ s⁻¹.

B4: mAb 12.7 (antibody, human IgG4 S228P, kappa, V domains shown)
VH: QVQLVQSGAEVKKPGASVKVSCKASGYTFTSEWMNWVRQAPGQGLEWMGQIFPALGSTNYNEMYEGRVTMTTDTSTSTAYMELRSLRSDDTAVYYCARGIGNYALDAMDYWGQGTLVTVSS
VL: DIQMTQSPSSLSASVGDRVTITCRASESVDFYGNSFMHWYQQKPGKAPKLLIYLASNLESGVPSRFSGSGSGTDFTLTISSLQPEDFATYYCQQNIEDPLTFGGGTKVEIKR
notes: as for B1
As for B4, the “HT-2 cell neutralization assay” value in test [1] was 0.59 ng/mL; in test [2], 3.34 ng/mL; in test [3], 6.78 ng/mL. Further, the results for the Kd in test [4], in test [5] and in test [6] were less than 0.2 pM, 0.473 pM and 0.82 pM, respectively. For the same molecule, the values for the koff in test [4], in test [5] and in test [6] were 7.93e-06 s⁻¹, 1.11e-05 s⁻¹ and 1.28e-05 s⁻¹, respectively. Moreover, the kon in test [4] is more than 5e+07 M⁻¹ s⁻¹; in [5], 2.8e+07 M⁻¹ s⁻¹; in test [6] it was 1.56e+07 M⁻¹ s⁻¹.

B5: Fab 12.4 (Fab, V domains shown)
VH: QVQLVQSGAEVKKPGASVKVSCKASGYTFTSYWMNWVRQAPGQGLEWMGQIFPALGSTNYGEMFEGRVTMTTDTSTSTAYMELRSLRSDDTAVYYCARGIGNYALDAMDYWGQGTLVTVSS
VL: DIQMTQSPSSLSASVGDRVTITCRASESVDWWGNSFMHWYQQKPGKAPKLLIYLASNLESGVPSRFSGSGSGTDFTLTISSLQPEDFATYYCQQNIEDPLTFGGGTKVEIKR
notes: as for B2
In test [7], B5 came in with a Kd of 1.55 pM. For the same molecule, in test [8], the koff was 5.2e-05 s⁻¹. The kon in test [9] came out at 3.4e+07 M⁻¹ s⁻¹.

B6: mAb 3.A (antibody, human IgG4 S228P, kappa, V domains shown)
VH: QVQLVQSGAEVKKPGASVKVSCKASGYTFTSYWMNWVRQAPGQGLEWMGQIFPASGSTNYGEMFEGRVTMTTDTSTSTAYMELRSLRSDDTAVYYCARGIGNYALDAMDYWGQGTLVTVSS
VL: DIQMTQSPSSLSASVGDRVTITCRASESVDFWGNSFMHWYQQKPGKAPKLLIYLASNLESGVPSRFSGSGSGTDFTLTISSLQPEDFATYYCQQNIEDPLTFGGGTKVEIKR
notes: as for B1
With B6, the “HT-2 cell neutralization assay” value came out at 2.62 ng/mL in [1], 51.4 ng/mL in test [2] and 16.9 ng/mL in [3]. For the same molecule, the Kd is less than 2 pM in [4], less than 4 pM in test [5] and 0.926 pM in test [6]. Moreover, the off-rate (koff) is 0.000107 s⁻¹ in [4], 0.000218 s⁻¹ in [5] and 2.38e-05 s⁻¹ in [6]. For the same molecule, the association rate constant (kon) is more than 5e+07 M⁻¹ s⁻¹ in test [4], more than 5e+07 M⁻¹ s⁻¹ in [5] and 2.9e+07 M⁻¹ s⁻¹ in test [6].

B7: Fab 4.17 (Fab, V domains shown)
VH: QVQLVQSGAEVKKPGASVKVSCKASGYTFTSYWMNWVRQAPGQGLEWMGQIFPFSGSTNYNEMFEGRVTMTTDTSTSTAYMELRSLRSDDTAVYYCARGIGNYALDAMDYWGQGTLVTVSS
VL: DIQMTQSPSSLSASVGDRVTITCRASESVDFWGNSFMHWYQQKPGKAPKLLIYLASNLESGVPSRFSGSGSGTDFTLTISSLQPEDFATYYCQQNAEDPLTFGGGTKVEIKR
notes: as for B2
B7 came in with a Kd in test [7] of 0.28 pM. In test [8], the off-rate constant (koff) is 6e-06 s⁻¹. In test [9], this molecule gave a kon of 2.2e+07 M⁻¹ s⁻¹.

B8: mAb 4.17 (antibody, human IgG4 S228P, kappa, V domains shown)
VH: QVQLVQSGAEVKKPGASVKVSCKASGYTFTSYWMNWVRQAPGQGLEWMGQIFPFSGSTNYNEMFEGRVTMTTDTSTSTAYMELRSLRSDDTAVYYCARGIGNYALDAMDYWGQGTLVTVSS
VL: DIQMTQSPSSLSASVGDRVTITCRASESVDFWGNSFMHWYQQKPGKAPKLLIYLASNLESGVPSRFSGSGSGTDFTLTISSLQPEDFATYYCQQNAEDPLTFGGGTKVEIKR
notes: as for B1
On to B8, for which the “HT-2 cell neutralization assay” value was found to be 0.42 ng/mL in test [1], 3.65 ng/mL in test [2] and 15.8 ng/mL in test [3]. Besides, the Kd in test [4] is less than 0.2 pM; in test [5] it was 0.529 pM; in [6] it was 1.53 pM. Besides, the koff came to 9.71e-06 s⁻¹ in test [4], 9.86e-06 s⁻¹ in test [5] and 2.84e-05 s⁻¹ in [6]. Moreover, the kon is more than 5e+07 M⁻¹ s⁻¹ in test [4], 2.37e+07 M⁻¹ s⁻¹ in test [5] and 2.17e+07 M⁻¹ s⁻¹ in test [6].

B9: 1D11.16 (antibody, from another filing, V domains shown)
VH: QVQLQQSGPELVRPGASVKLSCKASGYIFITYWMNWVKQRPGQGLEWIGQIFPASGSTNYNEMFEGKATLTVDTSSSTAYMQLSSLTSEDSAVYYCARGDGNYALDAMDYWGQGTSVTVSS
VL: DIVLTQSPASLAVSLGQRATISCRASESVDSYGNSFMHWYQQKSGQPPKLLIYLASNLESGVPARFSGSGSRTDFTLTIDPVEADDAATYYCQQNNEDPLTFGAGTKLEIK
For the molecule B9, the HT-2 cell neutralization assay, IC50 (Mean ng/ml) in [1] came to 215 ng/mL; in test [2], 574 ng/mL; in [3] it was 100 ng/mL.
